Where a chain is given by its changes, count along the chain named. Ends that are not written are not given here.
T1: human RXFP1 receptor (human, UniProt Q9HBX9 1-757)
T1 sequence (looked up): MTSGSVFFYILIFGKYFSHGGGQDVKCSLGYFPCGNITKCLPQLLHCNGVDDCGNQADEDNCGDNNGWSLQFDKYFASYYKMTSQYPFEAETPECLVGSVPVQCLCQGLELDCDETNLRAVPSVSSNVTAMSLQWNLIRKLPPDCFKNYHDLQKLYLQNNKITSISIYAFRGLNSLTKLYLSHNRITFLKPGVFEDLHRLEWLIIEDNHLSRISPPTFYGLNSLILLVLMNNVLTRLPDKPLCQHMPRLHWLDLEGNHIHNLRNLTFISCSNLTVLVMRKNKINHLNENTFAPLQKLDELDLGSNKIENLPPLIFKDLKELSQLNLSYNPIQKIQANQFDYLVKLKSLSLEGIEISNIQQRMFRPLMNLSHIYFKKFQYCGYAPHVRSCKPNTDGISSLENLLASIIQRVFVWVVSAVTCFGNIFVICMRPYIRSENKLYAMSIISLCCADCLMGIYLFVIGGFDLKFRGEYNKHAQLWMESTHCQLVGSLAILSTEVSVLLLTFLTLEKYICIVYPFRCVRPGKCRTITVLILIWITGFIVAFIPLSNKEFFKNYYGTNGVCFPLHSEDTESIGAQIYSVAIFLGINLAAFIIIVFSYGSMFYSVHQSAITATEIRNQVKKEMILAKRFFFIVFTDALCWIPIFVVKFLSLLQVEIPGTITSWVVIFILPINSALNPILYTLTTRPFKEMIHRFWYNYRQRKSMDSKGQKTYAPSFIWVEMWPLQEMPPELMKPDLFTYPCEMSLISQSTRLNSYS

T2: mouse RXFP1 receptor (mouse, UniProt Q6R6I7 1-758)
T2 sequence (looked up): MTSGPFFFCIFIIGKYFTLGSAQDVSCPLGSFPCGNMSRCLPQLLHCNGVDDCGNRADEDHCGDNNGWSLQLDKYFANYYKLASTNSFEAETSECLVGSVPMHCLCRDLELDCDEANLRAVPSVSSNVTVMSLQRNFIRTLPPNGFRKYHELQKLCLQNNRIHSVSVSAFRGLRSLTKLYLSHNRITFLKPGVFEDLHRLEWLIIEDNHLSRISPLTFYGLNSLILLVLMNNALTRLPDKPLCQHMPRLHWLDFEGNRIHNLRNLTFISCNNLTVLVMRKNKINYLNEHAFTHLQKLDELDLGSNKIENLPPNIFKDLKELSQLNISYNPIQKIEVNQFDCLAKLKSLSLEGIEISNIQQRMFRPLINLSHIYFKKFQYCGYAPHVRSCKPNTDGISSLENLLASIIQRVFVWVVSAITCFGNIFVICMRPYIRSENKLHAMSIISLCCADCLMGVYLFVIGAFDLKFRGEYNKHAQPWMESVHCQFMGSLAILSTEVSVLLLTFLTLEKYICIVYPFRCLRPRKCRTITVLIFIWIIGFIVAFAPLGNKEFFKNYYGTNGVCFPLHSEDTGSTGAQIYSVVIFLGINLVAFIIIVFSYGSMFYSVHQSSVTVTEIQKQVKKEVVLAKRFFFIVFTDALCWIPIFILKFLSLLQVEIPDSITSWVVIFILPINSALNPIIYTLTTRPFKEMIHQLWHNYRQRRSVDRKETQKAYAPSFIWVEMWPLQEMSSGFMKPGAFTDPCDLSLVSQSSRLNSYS

B1: recombinant human Relaxin-2 (R&D Systems, catalogue number 6586-RN-025) (ligand)
chain 1: QLYSALANKCCHVGCTKRSLARFC
chain 2: DSWMEEVIKLCGRELVRAQIAICGMSTWS
modifications: not fully specified (bridges); ends and bridges not checked; also: two interchain and one intrachain disulfide bonds, positions not given here
B2: Fc-YTE-TM_hRLX2_15-15AA (Fc fusion)
chain: DKTHTCPPCPAPEFEGGPSVFLFPPKPKDTLYITREPEVTCVVVDVSHEDPEVKFNWYVDGVEVHNAKTKPREEQYNSTYRVVSVLTVLHQDWLNGKEYKCKVSNKALPASIEKTISKAKGQPREPQVYTLPPSRDELTKNQVSLTCLVKGFYPSDIAVEWESNGQPENNYKTTPPVLDSDGSFFLYSKLTVDKSRWQQGNVFSCSVMHEALHNHYTQKSLSLSPGKGGGGSGGGGSGGGGSQLYSALANKCCHVGCTKRSLARFCGGGGSGGGGSGGGGSSWMEEVIKLCGRELVRAQIAICGMSTWS
B3: Fc-YTE-FQQ_hRLX2_15-15AA (Fc fusion)
chain: B2 chain with E15Q, K102Q, S111P
B4: Fc-TMΔTHTΔK_hRLX2(BA)_21-15AA (Fc fusion)
chain: GGGSACPPCPAPEFEGGPSVFLFPPKPKDTLMISRTPEVTCVVVDVSHEDPEVKFNWYVDGVEVHNAKTKPREEQYNSTYRVVSVLTVLHQDWLNGKEYKCKVSNKALPASIEKTISKAKGQPREPQVYTLPPSREEMTKNQVSLTCLVKGFYPSDIAVEWESNGQPENNYKTTPPVLDSDGSFFLYSKLTVDKSRWQQGNVFSCSVMHEALHNHYTQKSLSLSPGGGGGSGGGGSGGGGSGGGGGSSWMEEVIKLCGRELVRAQIAICGMSTWSGGGGSGGGGSGGGGSQLYSALANKCCHVGCTKRSLARFC
B5: hRLX2(BA)-Fc-TMΔTHTΔK_15-24AA (Fc fusion)
chain: SWMEEVIKLCGRELVRAQIAICGMSTWSGGGGSGGGGSGGGGSQLYSALANKCCHVGCTKRSLARFCAAAGGGGSGGGGSGGGGSGGGGSACPPCPAPEFEGGPSVFLFPPKPKDTLMISRTPEVTCVVVDVSHEDPEVKFNWYVDGVEVHNAKTKPREEQYNSTYRVVSVLTVLHQDWLNGKEYKCKVSNKALPASIEKTISKAKGQPREPQVYTLPPSREEMTKNQVSLTCLVKGFYPSDIAVEWESNGQPENNYKTTPPVLDSDGSFFLYSKLTVDKSRWQQGNVFSCSVMHEALHNHYTQKSLCLSPG
B6: hRLX2-Fc-TMΔTHTΔK_15-24AA (Fc fusion)
chain: QLYSALANKCCHVGCTKRSLARFCGGGGSGGGGSGGGGSSWMEEVIKLCGRELVRAQIAICGMSTWSAAAGGGGSGGGGSGGGGSGGGGSACPPCPAPEFEGGPSVFLFPPKPKDTLMISRTPEVTCVVVDVSHEDPEVKFNWYVDGVEVHNAKTKPREEQYNSTYRVVSVLTVLHQDWLNGKEYKCKVSNKALPASIEKTISKAKGQPREPQVYTLPPSREEMTKNQVSLTCLVKGFYPSDIAVEWESNGQPENNYKTTPPVLDSDGSFFLYSKLTVDKSRWQQGNVFSCSVMHEALHNHYTQKSLSLSPG
B7: Fc-TMΔTHTΔK_hRLX2_21-15AA (Fc fusion)
chain: GGGSACPPCPAPEFEGGPSVFLFPPKPKDTLMISRTPEVTCVVVDVSHEDPEVKFNWYVDGVEVHNAKTKPREEQYNSTYRVVSVLTVLHQDWLNGKEYKCKVSNKALPASIEKTISKAKGQPREPQVYTLPPSREEMTKNQVSLTCLVKGFYPSDIAVEWESNGQPENNYKTTPPVLDSDGSFFLYSKLTVDKSRWQQGNVFSCSVMHEALHNHYTQKSLSLSPGGGGGSGGGGSGGGGSGGGGGSQLYSALANKCCHVGCTKRSLARFCGGGGSGGGGSGGGGSSWMEEVIKLCGRELVRAQIAICGMSTWS

biological target: T1, human RXFP1 receptor; assay: cell-based or functional assay

Binder | EC50 (M), stimulation of cAMP production (HitHunter cAMP assay) in CHO-K1 RXFP1 Gs cells
B1 | 1.06e-10 M
B2 | 5.39e-09 M
B3 | 4.56e-09 M

biological target: T1, human RXFP1 receptor; assay: cell-based or functional assay; remark: another data set of the same source

Binder | hRXFP1 EC50 (M), cAMP HTRF assay in CHO-K1 RXFP1 Gs cells
B4 | 1.56e-08 M
B5 | 1.13e-09 M
B6 | 4.97e-09 M
B1 | 1.38e-10 M
B7 | 2.6e-09 M

biological target: T2, mouse RXFP1 receptor; assay: cell-based or functional assay

Binder | mRXFP1 EC50 (M), cAMP HTRF assay in CHO-K1 mRXFP1 Gs cells
B4 | 8.82e-09 M
B5 | 8.78e-10 M
B6 | 2.23e-09 M
B1 | 6.68e-11 M
B7 | 2.52e-09 M

biological target: human RXFP2 (human, UniProt Q8WXD0 1-754); assay: cell-based or functional assay
Sequence (Q8WXD0 whole entry): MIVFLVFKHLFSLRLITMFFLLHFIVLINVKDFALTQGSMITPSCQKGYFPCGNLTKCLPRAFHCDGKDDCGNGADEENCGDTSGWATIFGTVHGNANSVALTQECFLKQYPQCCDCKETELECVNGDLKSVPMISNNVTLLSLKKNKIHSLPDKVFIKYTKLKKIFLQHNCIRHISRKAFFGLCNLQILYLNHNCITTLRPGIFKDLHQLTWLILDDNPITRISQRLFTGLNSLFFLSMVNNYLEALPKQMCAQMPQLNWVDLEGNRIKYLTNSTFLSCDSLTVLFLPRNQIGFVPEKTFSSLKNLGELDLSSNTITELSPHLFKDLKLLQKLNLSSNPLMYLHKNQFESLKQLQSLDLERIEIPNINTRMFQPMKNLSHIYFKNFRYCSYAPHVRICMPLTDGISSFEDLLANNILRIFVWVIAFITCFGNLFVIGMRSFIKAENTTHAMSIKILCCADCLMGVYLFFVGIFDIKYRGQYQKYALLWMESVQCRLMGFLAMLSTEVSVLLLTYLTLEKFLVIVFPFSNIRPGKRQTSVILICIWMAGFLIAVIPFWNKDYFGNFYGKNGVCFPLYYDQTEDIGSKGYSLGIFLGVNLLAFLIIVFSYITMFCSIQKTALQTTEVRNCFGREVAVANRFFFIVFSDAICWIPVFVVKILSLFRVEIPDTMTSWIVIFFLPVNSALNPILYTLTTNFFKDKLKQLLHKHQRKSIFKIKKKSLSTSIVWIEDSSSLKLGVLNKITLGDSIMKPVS

Binder | hRXFP2 EC50 (M), cAMP HTRF assay in CHO-K1 RXFP2 Gs cells
B4 | > 8.22e-06 M
B5 | > 4.33e-06 M
B6 | > 3.09e-07 M
B1 | 1.46e-07 M
B7 | > 6.78e-06 M
